T1: 重组人CD24蛋白 (human, UniProt P25063 27-59, limits assumed)
T1 construct: also called 重组人CD24抗原
T1 chain (looked up): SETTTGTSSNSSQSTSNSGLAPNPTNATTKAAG


Target: T1, 重组人CD24蛋白
Assay: indirect ELISA, recombinant human CD24 coated at 0.5 ug/mL, antibody 0.08-2.5 nM, goat anti-human IgG detection

EC50	Binder
0.152 nM	CD24单克隆抗体cG7 (antibody, human IgG1, V domains shown, also called 亲本CD24单克隆抗体cG7; CD24嵌合抗体) VH: QVKLEESGGGLVQPGGSLKISCAASGFDFSRYWMSWVRQAPGKGLEWIGEINPDSSTINYTPSLRDKFIISRDNAKNTLYLQMSKVRYEDTSLYYCARQGDYWGQGTSVTVSS VL: not shown
0.153 nM	带有工程化半胱氨酸的CD24单克隆抗体cG7SV (antibody, V domains shown, also called 带有工程化半胱氨酸的CD24嵌合抗体) VH: QVKLEESGGGLVQPGGSLKISCAASGFDFSRYWMSWVRQAPGKGLEWIGEINPDSSTINYTPSLRDKFIISRDNAKNTLYLQMSKVRYEDTSLYYCARQGDYWGQGTSVTVSS VL: not shown

Reference: patent publication CN114106180A (CHINESE PHARMACOLOGY UNIV, dated 2022)
